Assay results as given in patent publication US5962246A.

Substrate: O=c1ccn([C@H]2C[C@H](O)[C@@H](COP(=O)(O)OP(=O)(O)OP(=O)(O)O)O2)c(=O)[nH]1
Assay: purified protein, by the assay type
Settings: other: substrate dUTP, 20 mM Tris-HCl pH 7.5, 37° C., purified recombinant DUT-N

B1: recombinant human dUTPase nuclear isoform DUT-N (Seq. ID No. 2), expressed in baculovirus/Sf21 insect cells (Homo sapiens) (protein)
chain: MPCSEETPAISPSKRARPAEVGGMQLRFARLSEHATAPTRGSARAAGYDLYSAYDYTIPPMEKAVVKTDIQIALPSGCYGRVAPRSGLAAKHFIDVGAGVIDEDYRGNVGVVLFNFGKEKFEVKKGDRIAQLICERIFYPEIEEVQALDDTERGSGGFGSTGKN
B1 gave a Km of 2.5 µM.
